From the supplement of paper PMC9170038 come the findings set out here.

Series [1] relates to MS2 coat protein. As to the kind of experiment: apparent KD of MS2 coat protein, switch ON state; designed switch direction (-1 OFF switch, 1 ON switch): -1; higher = weaker reporter binding. To be noted: FMN input: 0 or 200 uM; Eterna round: R93 (includes R88 designs). The gist of the method: (§1)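 The designed RNA switches were transcribed on-chip from Illumina sequencing clusters. In 100 mM Tris-HCl pH 7.5, 80 mM KCl and 4 mM MgCl2, without or with constant ligand, they were titrated with SNAP-549-labelled MS2 coat protein from 0.7 or 1.5 nM to 3 µM in twofold steps. Apparent KD is the per-design median of normalised cluster binding-curve fits.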

Series [2] deals with MS2 coat protein. Description: apparent KD of MS2 coat protein, switch OFF state (with FMN for OFF switches, without FMN for ON switches); designed switch direction (-1 OFF switch, 1 ON switch): -1; higher = weaker reporter binding. The settings on record: FMN input: 0 or 200 uM; Eterna round: R93 (includes R88 designs). The method, boiled down: as §1
The subject of series [3] is MS2 coat protein. As to the kind of experiment: apparent KD of MS2 coat protein; designed switch direction (-1 OFF switch, 1 ON switch): 1; higher = weaker reporter binding. The method, boiled down: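 For each design, the apparent KD is the median over clusters of curves fitted to normalised cluster fluorescence. Clusters held RNA switches with common flanks, transcribed on Illumina chips by stalled E. coli RNA polymerase. These were titrated with SNAP-549-labelled MS2 coat protein, doubling from 0.7 or 1.5 nM to 3 µM, without input, with 200 uM small-molecule ligand, or with an oligonucleotide input.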

Setting [4] is: input ligand: microRNA oligo, concentration not stated.

Regarding “AAAAAAAAAGGAUAUAAAACAGAGGAUAUACAUAAAUAAAAACAUGAGGAUCACCCAUGUAGAAGGCUGAAAAA [Meechl Ex2 R2 m0]”, the “apparent KD of MS2 coat protein” value came to 18.7 nM with MS2 coat protein [1] and 22.2 nM in the series with MS2 coat protein [2].

Take “AAAAAAAGAGGAUAUACGUGAAAAAUAAAAAUGUAAAAACCACAUGAGGAUCACCCAUGUAGAAGGCUUAAAAA [Ecx-I 62% 2]”: the “apparent KD of MS2 coat protein” value in the series on MS2 coat protein [1] is 26.4 nM; in the series with MS2 coat protein [2], 22.8 nM.

On to “AAAAAACAUGAGGAUCACCCAUGUAAGGAUAUCGAAAAGAAAAGAAAAGAAAGAAGAACGAGAAGGUACAAGAA [Neferirkare Kakai]”, for which the “apparent KD of MS2 coat protein” value was found to be 16.6 nM in the series with MS2 coat protein [1] and 16 nM with MS2 coat protein [2].

Take “AAAAAACAUGAGGAUCACCCAUGUAAGGAUAUCGGAAAAGGAAAAAAAAAAAAUAAGACGAGAAGGUACACCAA [Mat - Exclusion 1 - Eli mod - D79]”: the “apparent KD of MS2 coat protein” value was 23.3 nM with MS2 coat protein [1] and 31.2 nM in the series with MS2 coat protein [2].

“UUAGUCAUGUAAGGAUAUGCAGCCGAAACGGCUGCAGAAGGUACUAUAAUUACAUGAGGAUCACCCAUGUUAUAAAAUUUAUAU [Mat - Same State NG 1 - JL mod - D62] (Eterna round: R96, puzzle: Same State NG 1)”: the “apparent KD of MS2 coat protein” value stood at 23.4 nM in the series with MS2 coat protein [3] (input ligand: FMN 200 uM), 28.7 nM with MS2 coat protein [3] (setting [4]) and 41.2 nM in the series on MS2 coat protein [3] (input ligand: none).

For the sequence “UUAUCACAUGAGGAUCACCCAUGUUAUACUUUUUUAGGAUAUUUUAUGUAUGACCAAAUAAAAGAAGGAGGAAUAA [flagellum_key_01] (puzzle: Same State 1)”, the “apparent KD of MS2 coat protein” value was determined as 31.2 nM with MS2 coat protein [3] (Eterna round: R95, input ligand: FMN 200 uM); 44.4 nM in the series with MS2 coat protein [3] (Eterna round: R95, input ligand: microRNA oligo, concentration not stated); 47 nM in the series on MS2 coat protein [3] (Eterna round: R95, input ligand: none).

Regarding “UUCACCUUUUUUUACAUGAGGAUCACCCAUGUUUUCCCUACGUAGGAUAUCGAUGCUUGAUUGUUCGAGAAGGACGUUGUAAGU [JR_SSND3_Sub056] (Eterna round: R96, puzzle: Same State NG 3)”, the entries for the “apparent KD of MS2 coat protein” value with MS2 coat protein [3] (input ligand: FMN 200 uM), with MS2 coat protein [3] (setting [4]) and in the series on MS2 coat protein [3] (input ligand: none) were 29.6 nM, 20.7 nM and 33.7 nM, respectively.

Take “UUCACCUUUUUUUACAUGAGGAUCACCCAUGUUUUUUUUACGUAGGAUAUCGAUGCUUGUUUUUUCGAGAAGGACGAUGUAAGU [JR_SSND3_Sub052] (Eterna round: R96, puzzle: Same State NG 3)”: the figures for the “apparent KD of MS2 coat protein” value in the series with MS2 coat protein [3] (input ligand: FMN 200 uM), in the series on MS2 coat protein [3] (setting [4]) and in the series with MS2 coat protein [3] (input ligand: none) were 16.7 nM, 12.2 nM and 18.2 nM, respectively.

Turning to “UUGAAGAAUUAAGGAUAUUGAAUACAUAUGUUUAACAUGAGGAUCACCCAUGUGGGUUGCGGUAUCGAGAAGGUAAAUUACUAG [JL SSNG2 1.49] (Eterna round: R96, puzzle: Same State NG 2)”, the “apparent KD of MS2 coat protein” value in the series on MS2 coat protein [3] (input ligand: FMN 200 uM) came to 112 nM; in the series with MS2 coat protein [3] (setting [4]), 76.3 nM; with MS2 coat protein [3] (input ligand: none) it was 119 nM.

Take “UUGAAGAAUUAAGGAUAUUGAGUACAUAUGUAAAACAUGAGGAUCACCCAUGUGGGUUGCGGUAUCGAGAAGGUAAAUUAAUAG [Mat - same State NG 2 - JL mod - D70] (Eterna round: R96, puzzle: Same State NG 2)”: the “apparent KD of MS2 coat protein” value in the series on MS2 coat protein [3] (input ligand: FMN 200 uM) came to 87 nM; in the series with MS2 coat protein [3] (setting [4]) it was 67.6 nM; in the series on MS2 coat protein [3] (input ligand: none) it was 96.3 nM.

As to “UUGAAGAAUUAAGGAUAUUGAUUACAUAUGUUUAACAUGAGGAUCACCCAUGUGGGUUGCGGUAUCGAGAAGGUAAAAUAAUAG [Mat - same State NG 2 - JL mod - D82] (Eterna round: R96, puzzle: Same State NG 2)”, the “apparent KD of MS2 coat protein” value came out at 181 nM in the series on MS2 coat protein [3] (input ligand: FMN 200 uM), 231 nM in the series with MS2 coat protein [3] (setting [4]) and 258 nM with MS2 coat protein [3] (input ligand: none).

Consider “UUGAUGUACUGAGGAUAUCGUGUCGUCUGUUUUUACAUGAGGAUCACCCAUGUGGGUUGUGGUAUCGAGAAGGCAGUUUUCUUA [JR_SSNG2_Sub030] (Eterna round: R96, puzzle: Same State NG 2)”, for which the “apparent KD of MS2 coat protein” value was 306 nM in the series on MS2 coat protein [3] (input ligand: FMN 200 uM), 560 nM in the series with MS2 coat protein [3] (setting [4]) and 582 nM with MS2 coat protein [3] (input ligand: none).

With “UUGCUCGUGUGAGGAUAUGCAGCCGUUUCGGCUGCAGAAGGUACUAUAAUACAUGAGGAUCACCCAUGUCUCUGUUGUUUCGUG [salish99_SSNG1_r04_931] (Eterna round: R96, puzzle: Same State NG 1)”, the “apparent KD of MS2 coat protein” value with MS2 coat protein [3] (input ligand: FMN 200 uM) came to 27.3 nM; in the series with MS2 coat protein [3] (setting [4]), 21 nM; in the series with MS2 coat protein [3] (input ligand: none), 27.5 nM.
